The values that follow are results of earlier work, collected in article PMC7081292.

Where two headings read alike, the source gives them in different places.

As usually defined, the pKa is the pH at which an ionisable group is half protonated.

The target of data set [1] is T1, His57 (UniProt position 57, VVTAAHCGVTT). The following applies: zwitterionic tetrahedral (hemiacetal) adduct with an aldehyde inhibitor.
The target in data set [2] is T1, His57. Kind of data set: NMR. The following applies: zwitterionic tetrahedral adduct with a peptide-derived glyoxal inhibitor.

As to “Chymotrypsin (not stated (presumably Bos taurus))”, the pKa result in data set [1] was “∼ 8”; in data set [2], over 11.
